Test results taken from patent US9827336B2, “Radio-pharmaceutical complexes” (Bayer AS, priority 2012, dated 2017).

B1: AGC0715: AGC0700 conjugated to high-solubility ligand (12) (conjugate)
heavy: QVQLVQSGAEVKKPGSSVKVSCKASGYTFTDYNMHWVRQAPGQGLEWIGYIYPYNGGTGYNQKFKSKATITADESTNTAYMELSSLRSEDTAVYYCARGRPAMDYWGQGTLVTVSSASTKGPSVFPLAPSSKSTSGGTAALGCLVKDYFPEPVTVSWNSGALTSGVHTFPAVLQSSGLYSLSSVVTVPSSSLGTQTYICNVNHKPSNTKVDKKVEPKSCDKTHTCPPCPAPELLGGPSVFLFPPKPKDTLMISRTPEVTCVVVDVSHEDPEVKFNWYVDGVEVHNAKTKPREEQYNSTYRVVSVLTVLHQDWLNGKEYKCKVSNKALPAPIEKTISKAKGQPREPQVYTLPPSRDELTKNQVSLTCLVKGFYPSDIAVEWESNGGQPENNYKTTPPVLDSDGSFFLYSKLTVDKSRWQQGNVFSCSVMHEALHNHYTQKSLSLSPG
light: DIQMTQSPSSLSASVGDRVTITCRASESVDNYGISFMNWFQQKPGKAPKLLIYAASNQGSGVPSRFSGSGSGTDFTLTISSLQPDDFATYYCQQSKEVPWTFGQGTKVEIKRTVAAPSVFIFPPSDEQLKSGTASVVCLLNNFYPREAKVQWKVDNALQSGNSQESVTEQDSKDSTYSLSSTLTLSKADYEKHKVYACEVTHQGLSSPVTKSFNRGEC
modifications: chelator AGC0015 (12) conjugated; site not stated; none, one or two chelators on a chain
B2: AGC0715-Th-227: AGC0715 antibody-chelator conjugate chelated with Th-227 (conjugate)
heavy: B1 heavy
light: B1 light
modifications: chelator AGC0015 (12) conjugated, chelating Th-227; site not stated

Experiments:
CD33 = target: T1, CD33 (Homo sapiens, UniProt P20138); test: Binding to CD33-positive HL-60 cells by flow cytometry; details: FIG. 2
T1 construct: endogenous in cells; host or cells: HL-60 cells
T1 sequence (P20138 18-364): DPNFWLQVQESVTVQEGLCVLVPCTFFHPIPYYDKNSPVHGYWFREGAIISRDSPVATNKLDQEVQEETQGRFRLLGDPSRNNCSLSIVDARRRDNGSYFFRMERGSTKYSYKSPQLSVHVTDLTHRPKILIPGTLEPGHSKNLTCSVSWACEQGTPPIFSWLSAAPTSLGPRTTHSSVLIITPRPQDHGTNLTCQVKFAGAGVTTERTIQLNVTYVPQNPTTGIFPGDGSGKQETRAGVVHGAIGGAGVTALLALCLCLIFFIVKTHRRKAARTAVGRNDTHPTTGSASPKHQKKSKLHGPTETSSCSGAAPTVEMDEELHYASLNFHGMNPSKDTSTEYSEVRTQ
Experimental: Binding to CD33-positive HL-60 cells were studied by flow cytometry. The determination of EC50 based on the plotted curve gives an approximate value for the affinity. The commercially available mouse anti human CD33 (BD Pharmingen; #555450, 1 mg/mL) was used as a reference antibody for assessment of the affinity, including a setup with a 50:50 mixture with the mAb to be analyzed. This assay was also used to confirm that target binding affinity was not negatively affected by conjugation with the chelator.
HL-60 cells were grown in Iscove's Modified Dulbecco's Medium (IMDM; Invitrogen; #12440-046) in the presence of 20% of fetal bovine serum and penicillin/streptomycin. […] Subsequently, 20 μL of the preparation of resuspended cells was diluted 1:500 in Coulter Isoton II Diluent, and counted using a Beckman Coulter Z2 instrument (Beckman Coulter; CA, USA). […]
The mAb or conjugate to be analyzed was prepared fresh form frozen stock by shifting the storage buffer to PBS, kept at 4° C., and used within a few days after preparation. […]
The cells were washed twice, as described above, and re-suspended in 200 μL PBS, supplemented with 0.1% BSA. All samples were analysed in 96-well round or conical bottom plates. Fluorescent signals were recorded on a Beckham Coulter Cell lab Quant SC flow cytometer (Beckman Coulter; CA, USA). […]

HL-60 tumour [1] = test: Biodistribution in HL-60 tumour bearing nude mice; details: 15 kBq/animal intravenous, HL-60 xenograft
Source text: Female NMRI nude mice were xenografted with cells from the human HL-60 tumour cell line. […] 54 female NMRI nude mice (Taconic, Europe) were used in the study.
The animals were allowed an acclimation period of at least 5 days before entering the study and were at an age of 4 weeks before tumour inoculation. […] Animals were kept in individually ventilated cages (IVC, Scanbur) with HEPA filtered air and had ad libitum access to “Rat and mouse nr.3 Breeding” diet (Scanbur BK) and water acidified by addition of HCl to a molar concentration of 1 mM (pH 3.0). HL-60 cells (ATCC/United Kingdom; Catalog Number CCL-240) were grown and prepared for subcutaneous inoculation in IMDM (Invitrogen; #12440-046) in presence of 20% FCS and penicillin/streptomycin. […]
Animals were euthanized at predetermined time points post injection, and blood, muscle, femur, kidneys, lung, liver, stomach, small intestine, large intestine and tumour were collected. Tissues and blood samples were weighed, and the radioactivity in each sample was measured using gamma spectroscopy (HPGe15p or HPGe50p germanium detectors).
The measured radioactivity (Bq) was related to the radioactivity measured in 10% injection standard samples, and the percentage of Th-227 and Ra-223 were calculated and presented as % ID or % ID per gram of tissue.

[2] = system: CD33 positive HL-60 cells; test: Th-227-induced cell cytotoxicity (ATP, CellTiter-Glo) in HL-60 cells; format: cell-based, human; details: 3 nM or 0.3 nM, 44 kBq/μg, up to day 7
Experimental: In vitro cell cytotoxicity was investigated in CD33 positive HL-60 cells. AGC0715 and the control trastuzumab conjugated AGC0015 were used to chelate Th-227 to a specific activity of 44 kBq/μg. HL-60 cells were grown at 37° C. with 5% CO2, and split 1:5 three times a week. The day before the assay the culture medium (Iscove's Modified Dulbecco's Medium (IMDM) with 20% FBS and 1% Penicillin/Streptomycin) was replaced by new medium and the volume adjusted to give 400 000 cells per mL.
About, 1 600 000 cell (4 mL) were added to each well in a 6 well plate. The plate was incubated until next day for addition of labelled mAb, or culture medium. After adding labelled mAb, or culture medium, the plate was incubated for 4 additional hours. In one experiment AGC0715 or trastuzumab-AGC0015 was added to each well to a final concentration of 3 nM. In another experiment the final concentration was 0.3 nM.
Following incubation, the cells were washed twice in culture medium, and the ATP in the supernatant and in the pellet was measured. The cells were then split 1:2 and incubated in culture medium at 37° C. with 5% CO2. The same procedure, but with only one wash, was repeated at days 2, 4, and 7.

HL-60 tumour [3] = system: HL-60 tumour; design: species or system mice; details: mouse, in vivo
Experimental: Cell preparation and xenografting of female NMRI nude mice are done as described in Example 9. […] The mice have an approximated body weight of approximately 20 grams at the start of the study. […] Mice will be inoculated with tumour cells about 10 days before dosing in order to have mice with average size of tumours in the range from 75-150 mm3. Animals are randomized into 4 treatment groups and 3 control groups (n=10/group).
Mice in the treatment groups are injected into the tail vein with 100 μL containing 75 kBq/mL, 150 kBq/mL, 225 kBq/mL or 300 kBq/mL AGC0715-Th-227, to achieve 250, 500, 750 or 1000 kBq/kg body weight (b.w.). The mice in the control groups are administered either with vehicle only (buffer), non-radioactive antibody (AGC0715) or trastuzumab-Th-227, labelled to a specific activity of 500 kBq/kg (isotype control).
Appearance of tumours will carefully be monitored, and the tumours will be scored (if not large enough to be measured) or measured thrice a week according to the following scheme:
Tumour diameters will be measured in two dimensions using a digital caliper and the volume will be estimated by the following formula: L×W×[…] (Length×Width×½ Width). […] Body weights will be recorded once a week. […]
The mice will be terminated following maximal tumour size of 15 mm diameter. […] In case of observations of adverse clinical signs, these will be recorded as note to files. […]

Molecule	binding affinity (CD33)	tumour targeting / build-up of radioactivity (HL-60 tumour [1])	cellular toxicity (cell viability by ATP) [2]	adverse clinical signs (HL-60 tumour [3])
B1	comparable to the non-conjugated AGC0700	Build-up of radioactivity was seen in the tumour, but in no normal tissue	–	–
B2	–	specific tumour uptake	resulted in cellular toxicity	No adverse clinical sigs
